From US20260234220A1 (OSPEDALE SAN RAFFAELE S R L, published 2026)

Assays:
Assay in all cases: immunofluorescence on infected Vero E6 cells
[1] = target: T1, spike protein of SARS-CoV-2 B.1.1.7 (Alpha) clinical isolate (19/Italy/LOM-UniSR7/2021); GISAID … (SARS-CoV-2, UniProt P0DTC2 14-1273)
T1 construct: whole, on cells

[2] = target: T2, spike protein of SARS-CoV-2 Delta clinical isolate (hCoV-19/Italy/LOM-UniSR12/2021; GISAID EPI_ISL_4198505) (SARS-CoV-2, UniProt P0DTC2 14-1273)
T2 construct: whole, on cells

[3] = target: T3, spike protein of SARS-CoV-2 P.1 (Gamma) clinical isolate (hCoV-19/Italy/LOM-UniSR8/2021); GISAID … (SARS-CoV-2, UniProt P0DTC2 14-1273)
T3 construct: whole, on cells

Measured: binding result

B1: Fab BS.70 (Fab, V domains shown)
VH: LESGGGVVQPGTSLRLSCAASGFTFNNFGMHWVRQAPGKGLEWVAMISYEGSKDFYADSVKGRFTISKDHARNTVYLQMNSLRAEDTAEYYCAKDKAIFMISAGRTLDFWGQGTLVTVSS
VL: ELVMTQSPSSLSASVGDRVTITCRASQNIGIYLNWYQQKPGKAPKLLIYAASSLQNGVPSRFSGSGSGTDFTLTISTLQPEDFATYWCQQGYSTPLTFGGGTKVEIR
binds: all assays above
